Experimental data published in paper PMC5314765.

T1: Abf2p (mature) (Saccharomyces cerevisiae, UniProt Q02486 27-183)
T1 sequence: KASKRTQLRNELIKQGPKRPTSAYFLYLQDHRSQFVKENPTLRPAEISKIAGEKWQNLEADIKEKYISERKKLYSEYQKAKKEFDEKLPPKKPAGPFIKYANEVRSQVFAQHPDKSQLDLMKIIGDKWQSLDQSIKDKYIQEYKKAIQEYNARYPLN

B1: Af2_22 5-BrU6 (dsDNA)
DNA 1: AATAATAAATTATATAATATAA
DNA 2: TTATATTATATAATTTATTATT
modifications: T6 replaced by 5-bromouracil
B2: GC_22 (dsDNA)
DNA 1: GAAGATATCCGGGTCCCAATAA
DNA 2: TTATTGGGACCCGGATATCTTC

What was measured:
Abf2p (mature) [1] = molecular target: T1, Abf2p (mature); assay: X-ray crystallography
Abf2p (mature) [2] = molecular target: T1, Abf2p (mature); assay: ITC

Row | Binder | binding result (Abf2p (mature) [1]) | binding result (Abf2p (mature) [2])
1 | B1 | binds | 
2 | B2 |  | binds
